Patent publication US20200207835A1, “SRCP1-BASED THERAPY FOR DISEASES ASSOCIATED WITH PROTEIN AGGREGATION” (THE MEDICAL COLLEGE OF WISCONSIN, INC., priority 2017, published 2020)

What was measured:
^GFPHtt^ex1Q74 [1] = target: ^GFPHtt^ex1Q74 (Homo sapiens, UniProt P42858); test: GFPHttex1Q74 aggregation in zebrafish spinal cord neurons; type: in vivo; parameters: encoding pEGFP huntingtin exon-1 with 23 (^GFPHtt^ex1Q23) or 74 (^GFPHtt^ex1Q74) glutamines; host or cells: zebrafish embryos injected with in vitro transcribed mRNA; spinal cord neurons imaged; conditions: zebrafish embryos injected with RNA
Method: To test the effect of ^RFPSRCP1 on ^GFPHtt^ex1Q74 aggregation in zebrafish, each plasmid was used for in vitro synthesis of mRNA (mMessage mMachine T7 transcription kit, ThermoFisher Scientific). Newly fertilized embryos were injected with either 200 pg mRNA each of ^RFPSRCP1 and ^GFPHtt^ex1Q74, or RFP alone and ^GFPHtt^ex1Q74. Embryos were developed until 54 hours post fertilization, at which time live specimens were anesthetized in Tricane, embedded in 1% low-melt agarose, and subjected to confocal microscopy. Spinal cord images were taken at 100 μm×100 μm and a scan depth of 50 μm. Single image planes from 488 nm and 568 nm excitation were collected. Images were then processed for threshold analysis using ImageJ and the total number puncta were scored.

HD iPSC-derived neurons = test: Neurite length in HD iPSC-derived neurons; type: cell-based, human; conditions: HD iPSC-derived neurons with 60 or 180 glutamines, overexpression of SRCP1
Method: iPSC transfections were performed with mixed cultures of astrocytes and neurons adhered to matrigel-coated coverslips, seeded at 2.6×10^4 cells/cm^2. iPSC transfections were performed using Lipofectamine 2000 according to the manufacturer's instructions and recommended DNA concentrations for a 24-well transfection.
Plated iPSC derived cultures of astrocytes and neurons were fixed with 4% paraformaldehyde in PBS for 20 minutes at room temperature, 3-5 days after transfection. Cells were permeabilized and blocked prior to antibody labeling. Nuclei were labeled with Hoechst nuclear dye. Primary antibodies used were rabbit anti-Tuj1 (Covance MRB-435P), chicken anti-Tuj1(Gene Tex, GTX85469) and mouse anti-GFAP (Cell Signaling, 3670). Images were taken using an upright Nikon fluorescent microscope with a 40× objective. The number of neural cells with GFP positive puncta was quantified using NIS Elements object quantification tool (Nikon) and neurite length was measured using NIS Elements length measurement tool (Nikon).
For control iPSCs, four biological replicates from two independent differentiations were analyzed and for HD iPSCs, four biological replicates were analyzed from four separate differentiations using two independent HD lines.

^GFPHtt^ex1Q74 [2] = test: GFPHttex1Q74 aggregation in transfected HEK293 cells (fluorescent/confocal microscopy, western blot, filter trap assay); type: cell-based, human
Method: Transfections were performed with Lipofectamine 2000 (Invitrogen by ThermoFisher Scientific) and adapted from the manufacturer's instructions. Briefly, cells were plated on either 12-well or 6-well plates and transfected at 50-70% confluency. For 12-well transfections, 0.833 μg of DNA per well was mixed with 50 μl of OptiMEM (Gibco by Life Technologies) media and incubated for 5 minutes at room temperature. Lipofectamine 2000 in a 2:1, μl of lipofectamine: μg DNA ratio was mixed with 50 μl of OptiMEM media and incubated for 5 minutes at room temperature. DNA and Lipofectamine were mixed and incubated for 15 minutes at room temperature. Fresh media was added to cells prior to the addition of DNA and lipofectamine. For 6-well transfections, the same protocol is followed except that 1.25 μg of DNA per well and 100 μl of OptiMEM for dilution was used. Media was changed 24 hours post-transfection and cells were harvested 48 hours post-transfection. Prior to harvesting, HEK293 cells were washed three times with ice-cold 1×PBS. Samples were then lysed with either 150 μl of ice-cold NETN (with protease inhibitor) or 1× Laemmli Buffer and sonicated twice for 5-8 seconds.
(§1) For proteasome inhibition, 30 hours post-transfection cells would be replenished with DMEM containing either DMSO or 10 μM MG132 (Sigma-Aldrich) for 18 hours. Prior to harvesting, HEK293 cells were washed three times with ice-cold 1×PBS and imaged by fluorescent microscopy with a 20× objective using the Evos FL Auto Imaging System. Cells were then lysed with either 150 μl of ice-cold NETN (with protease inhibitor) or 1× Laemmli Buffer and sonicated twice for 5-8 seconds.
as §1, with “autophagy” for “proteasome”, “24” for “30”, “and treated with” for “containing”, “5 mM 3-Methyladenine” for “10 μM MG132”, “an additional 24” for “18”
For HEK293s′, slides were prepared by placing coverslips in 6-well plates and incubating with poly-L-lysine hydrobromide (Sigma-Aldrich) for an hour at room temperature. Coverslips were rinsed with 1×PBS three times prior to plating HEK293 cells. HEK293 cells were then transfected and fixed by incubation in 4% paraformaldehyde for 20 minutes at room temperature. Coverslips were mounted with ProLong Gold Antifade reagent and imaged with a 20× objective using the Evos FL Auto Imaging System or with a 40× objective using the Leica TCS SP5 Confocal Microscope System. For confocal, Z-stack images were obtained at […] intervals at 1024×1024 pixel resolution and merged using Fiji.
Following sonication, lysates were subjected to BCA protein assay (ThermoFisher Scientific) and prepared for loading by the addition of 4× laemmli buffer and boiling for four minutes. Samples then loaded on SDS-polyacrylamide gels, ran at 175 V, and transferred onto an Immuno-blot PVDF membrane (Biorad) overnight at 30 V. Membranes were blocked in 5% milk in TBS with 0.1% Tween (TBST) and incubated in primary antibody overnight at 4° C. Following primary, membranes were washed for 10 minutes at room temperature three times with TBST and incubated in secondary for an hour at room temperature. Membranes were then washed for 10 minutes at room temperature three times with TBST and then incubated in buffer for enhanced chemiluminescence (50 mM Na2HPO4; 50 mM Na2CO3; 10 mM NaBO3.4H2O; 250 mM luminol; 90 mM coumaric acid).
For HEK293 lysates, BCA protein assay was used to determine protein concentration. […]

[3] = system: mutant (G85R or A4V) SOD1; test: Aggregated mutant SOD1 in HEK293 cells (ultracentrifugation, western blot); type: cell-based, human; conditions: HEK293, 48 hours, overexpression of SRCP1
Method: HEK293 cells were transfected with either wild-type or mutant (G85R or A4V) SOD1 either in the presence or absence of SRCP1 for 48 hours. Cells were then collected and lysed prior to ultracentrifugation to isolate aggregated proteins. After ultracentrifugation cell protein in the pellet was suspended in Laemmli buffer and analyzed by SDS-PAGE and western blot

[4] = HEK293, co-expression, fluorescent microscopy

^GFPHtt^ex1Q74, sequence (P42858 with tags, fused parts or gaps limits assumed): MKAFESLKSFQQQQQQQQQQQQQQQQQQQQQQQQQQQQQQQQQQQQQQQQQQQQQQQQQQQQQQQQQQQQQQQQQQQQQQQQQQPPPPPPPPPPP
^GFPHtt^ex1Q74 (Homo sapiens, UniProt P42858), sequence (P42858 with tags, fused parts or gaps): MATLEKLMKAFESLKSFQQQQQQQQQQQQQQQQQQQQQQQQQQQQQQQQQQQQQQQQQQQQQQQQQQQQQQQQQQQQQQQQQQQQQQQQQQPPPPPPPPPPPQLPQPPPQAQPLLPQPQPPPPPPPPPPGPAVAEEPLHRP

B1: SRCP1: Dictyostelium discoideum serine-rich chaperone protein 1 (SEQ ID NO:2), expressed in cells as RFP-tagged construct (protein)
chain: MTILSTFTSFSNPPKLNKSSFSSSTGSSLSMGSNSFAWGGGWGGFGGPKGGSFNVDIAGNLIWGVYGFIRGGVGLVKWRGLQKGCKQP
modifications: RFP tag; Dictyostelium discoideum AX4
- GFPHttex1Q74 puncta in spinal cord neurons (^GFPHtt^ex1Q74 [1]): significant reduction of ^GFPHtt^ex1Q74 puncta
- neurite length (HD iPSC-derived neurons): significantly increased neurite length
- polyQ aggregation under proteasome inhibition (^GFPHtt^ex1Q74 [2]; HEK293, SRCP1 in the presence of proteasome inhibition): prevented polyQ aggregation
- levels of monomeric, soluble GFPHttex1Q74 (^GFPHtt^ex1Q74 [2]; HEK293, co-expression): no effect on the levels of monomeric, soluble
- soluble GFPHttex1Q74 levels under autophagy inhibition (^GFPHtt^ex1Q74 [2]; HEK293, co-expression of RFPSRCP1 plus 5 mM 3-MA): did not lead to a significant increase in soluble
- soluble GFPHttex1Q74 under proteasome inhibition (^GFPHtt^ex1Q74 [2]; HEK293, co-expression of RFPSRCP1 plus proteasome inhibitor, compared to proteasome inhibition alone): even further increase in the amount of soluble
- number of GFPHttex1Q74 puncta (^GFPHtt^ex1Q74 [2]; [4]): significantly decreases the number of puncta
- size of GFPHttex1Q74 puncta (^GFPHtt^ex1Q74 [2]; [4]): significantly decreases ^GFPHtt^ex1Q74 puncta size
- amount of GFPHttex1Q74 aggregates (^GFPHtt^ex1Q74 [2]; HEK293, co-expression, SDS-PAGE, filter trap assay, confocal microscopy): greatly reduced the amount of ^GFPHtt^ex1Q74 aggregates
- levels of aggregated mutant SOD1 [3]: reduces the levels of aggregated mutant SOD1
